Assay results from patent US20260167721A1 (ABLEXIS, published 2026).
Residue numbers refer to the chain shown, from its start.

B1: ABL-CD3-52 (antibody, V domains shown)
VH: EVQLVESGGGLVKPGGSLRLSCAASGFTFSYYSMNWVRQAPGKGLEWVSSISRSTTYIYYADSVKGRFTISRDNAKNSLYLQMNSLRAEDTAVYYCARDGKGAIFLDYWGQGTLVTVSS
VL: SYELTQPPSVSVSPGQTARITCSGDALPKKYAYWYQQKSGQAPVLVIYEDSKRPSGIPERFSGSSSGTMATLTISGAQVEDEADYYCYSTDSSGNHRVFGGGTKLTVL
notes: Chimeric hybridoma mAb: human V, CH1, upper hinge; mouse middle hinge, CH2, CH3
B2: ABL-CD3-62 (antibody, V domains shown)
VH: EVQLVESGGGLVKPGGSLRLSCAASGFTFSSYSMNWVRQAPGKGLEWVSSISRSSGYIFYADSVKGRFTISRDNAKNSLYLQMNSLRAEDTAVYYCVRERVGAGFDYWGQGTLVTVSS
VL: NFMLTQPHSVSESPGKTVAISCTRSSGSIASNYVQWYQQRPGSSPTAVIYEDNQRPSGVPDRFSGSIDSSSNSAFLTISGLKTEDEADYYCQSYDSSNRVFGGGTKLTVL
notes: as for B1
B3: ABL-CD3-51 (antibody, V domains shown)
VH: EVQLVESGGGLVKPGGSLRLSCAASGFTFSSYSMNWVRQAPGKGLEWVSSISRSSSYIYYADSVKGRFTISRDNAKNSLYLQMNSLRAEDTAVYYCARERWELLYFDYWGQGTLVTVSS
VL: B2 VL with A19T, A47T, F75S
notes: as for B1
B4: ABL-CD3-34 (antibody, V domains shown)
VH: EVHLVESGGGLVKPGGSLRLSCAASGFTFSRYSMNWVRQAPGKGLEWVSSISRSSSYIYYADSVKGRFTISRDNAKNSLYLQMNSLRAEDTAVYYCAREPRTLGMDYWGQGILVTVSS
VL: B2 VL with A19T, A47T, F75S
notes: as for B1
B5: ABL-CD3-25 (antibody, V domains shown)
VH: B4 VH with R31S, R53S, S56T
VL: B2 VL with A19T, A47T, Q54H, F75S, Y90F, Y94F
notes: as for B1
B6: ABL-CD3-19 (antibody, V domains shown)
VH: B3 VH with F29L
VL: B2 VL with A19T, A47T, F75S, Y94F, S96N
notes: as for B1
B7: ABL-CD3-15 (antibody, V domains shown)
VH: B3 VH with T28N, F29C, S56N, T69S, N74D, E102I, L103Q, F106S, T113I
VL: B2 VL with A19T, A47T, F75S
notes: as for B1
B8: ABL-CD3-6 (antibody, V domains shown)
VH: EVQLVDSGGGLVKPGGSLRLSCAASGFTFSSYSMNWVRQAPGKGLEWVSSISSRGSYRNYADSVKGRFTISRDNAKNSLYLQMNSLRAEDTAVYYCARDRRELLLDCWGQGTLVTVSS
VL: SYELTQPPSVSVSPGQTARITCSGDALPKKYAYWYQQKSGQAPVLVIYEDSKRPSGIPERFSGSSSGTMATLTISGAQVEDEADYYCYSTDSSGNHSWVFGGGTKLTVL
notes: as for B1
B9: CD3 × CD33-BspAb65 (bispecific antibody)
scFv-Fc: NFMLTQPHSVSESPGKTVTIACTRSSGSIASNYVQWYQQRPGSSPTTVIYEDNQRPSGVPDRFSGSIDSSSNSASLTISGLKTEDEADYYCQSYDSSNQVFGCGTKLTVLGGGGSGGGGSGGGGSGGGGSQVTLKESGPGILQPSQTLSLTCSFSGFSLSTFGMGVGWIRQPSGKCLEWLAHIWWDDDKYYNPALKSRLTISKDTSKNQVFLKIANVDTADTATYYCARLGYYPYWFFDVWGTGTTVTVSSGGGGSDKTHTCPPCPAPEFEGGPSVFLFPPKPKDTLMISRTPEVTCVVVDVSHEDPEVKFNWYVDGVEVHNAKTKPREEQYNSTYRVVSVLTVLHQDWLNGKEYKCKVSNKALPASIEKTISKAKGQPREPQVYTLPPCREEMTKNQVSLWCLVKGFYPSDIAVEWESNGQPENNYKTTPPVLDSDGSFFLYSKLTVDKSRWQQGNVFSCSVMHEALHNHYTQKSLSLSPGK
heavy: EVQLVQSGAEVKKPGSSVKVSCKASGYTITDSNIHWVRQAPGQSLEWIGYIYPYNGGTDYNQKFKNRATLTVDNPTNTAYMELSSLRSEDTAFYYCVNGNPWLAYWGQGTLVTVSSASTKGPSVFPLAPSSKSTSGGTAALGCLVKDYFPEPVTVSWNSGALTSGVHTFPAVLQSSGLYSLSSVVTVPSSSLGTQTYICNVNHKPSNTKVDKRVEPKSCDKTHTCPPCPAPEFEGGPSVFLFPPKPKDTLMISRTPEVTCVVVDVSHEDPEVKFNWYVDGVEVHNAKTKPREEQYNSTYRVVSVLTVLHQDWLNGKEYKCKVSNKALPASIEKTISKAKGQPREPQVCTLPPSREEMTKNQVSLSCAVKGFYPSDIAVEWESNGQPENNYKTTPPVLDSDGSFFLVSKLTVDKSRWQQGNVFSCSVMHEALHNRFTQKSLSLSPGK
light: DIQLTQSPSTLSASVGDRVTITCRASESLDNYGIRFLTWFQQKPGKAPKLLMYAASNQGSGVPSRFSGSGSGTEFTLTISSLQPDDFATYYCQQTKEVPWSFGQGTKVEVKRTVAAPSVFIFPPSDEQLKSGTASVVCLLNNFYPREAKVQWKVDNALQSGNSQESVTEQDSKDSTYSLSSTLTLSKADYEKHKVYACEVTHQGLSSPVTKSFNRGEC

Target: T1, recombinant human CD3 epsilon/delta heterodimer (human, UniProt P07766 23-126; P04234 22-105)
T1 construct: Recombinant protein in solution (200-50 nM) in the Octet assay; also called hCD3 E/D; human CD3E/D
Test: Octet BLI, mAb on FAB2G sensor, hCD3 E/D 200-50 nM; R^2 0.98;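 also: antibodies purified from hybridoma supernatants, measured by Octet binding to recombinant human CD3 protein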
Protocol: (§1) Samples were evaluated by flow cytometry analysis against Jurkat and human Pan-T cells (FIG. 1B) as well as by Octet against recombinant human CD3 proteins to evaluate apparent affinities and binding off-rates (Table 6, infra).

T1 sequence (P07766 23-126, stated change not applied, chain 1 of 2): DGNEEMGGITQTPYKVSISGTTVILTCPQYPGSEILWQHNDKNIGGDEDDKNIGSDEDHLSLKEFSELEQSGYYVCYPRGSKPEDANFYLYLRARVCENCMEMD
T1 sequence (P04234 22-105, stated change not applied, chain 2 of 2): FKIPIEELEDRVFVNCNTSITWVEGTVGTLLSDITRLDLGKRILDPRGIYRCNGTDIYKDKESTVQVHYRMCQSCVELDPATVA

| Binder | Kd [nM] | Response | koff [s⁻¹] | kon [M⁻¹ s⁻¹] |
| --- | --- | --- | --- | --- |
| B1 | 54 | 0.35 | 0.0202 | 373000 |
| B2 | 34 | 0.56 | 0.00765 | 225000 |
| B3 | 77.1 | 0.21 | 0.0188 | 244000 |
| B4 | 9.01 | 0.93 | 0.00211 | 234000 |

Target: T2, recombinant human CD3 epsilon/gamma heterodimer (human, UniProt P07766 23-126; P09693 23-116)
T2 construct: Recombinant protein in solution (200-50 nM) in the Octet assay; also called hCD3 E/G
Test: Octet BLI, mAb on FAB2G sensor, hCD3 E/G 200-50 nM; R^2 1.00
Protocol: as §1

T2 sequence (P07766 23-126, chain 1 of 2): as the sequence (P07766 23-126, stated change not applied, chain 1 of 2) above
T2 sequence (P09693 23-116, chain 2 of 2): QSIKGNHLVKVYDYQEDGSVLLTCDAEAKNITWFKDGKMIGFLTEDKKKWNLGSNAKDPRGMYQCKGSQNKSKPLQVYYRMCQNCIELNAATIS

| Binder | Kd [nM] | Response | koff [s⁻¹] | kon [M⁻¹ s⁻¹] |
| --- | --- | --- | --- | --- |
| B5 | 11.7 | 1.27 | 0.00113 | 96600 |
| B6 | 62.9 | 0.4 | 0.00665 | 106000 |
| B7 | 6.54 | 0.83 | 0.00113 | 173000 |
| B8 | 138 | 0.17 | 0.0779 | 566000 |

Target: T1, recombinant human CD3 epsilon/delta …
Test: Octet BLI, mAb on FAB2G sensor, hCD3 E/D 200-50 nM; R^2 1.00

| Binder | Kd [nM] | Response | koff [s⁻¹] | kon [M⁻¹ s⁻¹] |
| --- | --- | --- | --- | --- |
| B6 | 23.3 | 0.6 | 0.00191 | 81700 |
| B8 | 69.7 | 0.3 | 0.0333 | 477000 |

Target: T3, CD33 on KILR-HL60 cells (UniProt P20138 18-364, limits assumed)
T3 construct: whole, on cells; Target of the gemtuzumab arm; also called CD33 expressing cells
Test: flow cytometry on KILR-HL60 (CD33 expressing) cells, antibody at 1 ug/ml

T3 sequence (P20138 18-364 limits assumed): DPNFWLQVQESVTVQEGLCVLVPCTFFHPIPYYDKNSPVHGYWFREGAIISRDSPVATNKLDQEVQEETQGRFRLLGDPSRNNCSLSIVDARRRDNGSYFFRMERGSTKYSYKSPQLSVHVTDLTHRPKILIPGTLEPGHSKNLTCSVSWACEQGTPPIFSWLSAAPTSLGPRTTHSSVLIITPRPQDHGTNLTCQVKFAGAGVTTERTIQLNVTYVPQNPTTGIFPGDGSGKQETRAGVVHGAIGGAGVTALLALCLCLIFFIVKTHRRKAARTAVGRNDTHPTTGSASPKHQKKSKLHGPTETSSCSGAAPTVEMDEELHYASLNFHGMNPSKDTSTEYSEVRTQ

| Binder | flow cytometry signal |
| --- | --- |
| B9 | 533000 |

Target: T1, recombinant human CD3 epsilon/delta …
Test: Octet BLI, mAb on FAB2G sensor, hCD3 E/D 200-50 nM; R^2 0.99

| Binder | Kd [nM] | Response | koff [s⁻¹] | kon [M⁻¹ s⁻¹] |
| --- | --- | --- | --- | --- |
| B5 | 8.56 | 1.32 | 0.000933 | 109000 |
| B7 | 1.62 | 0.93 | 0.000276 | 171000 |

Target: T3, CD33 on KILR-HL60 cells
Test: flow cytometry on KILR-HL60 (CD33 expressing) cells, antibody at 10 ug/ml

| Binder | flow cytometry signal |
| --- | --- |
| B9 | 605000 |

Target: T2, recombinant human CD3 epsilon/gamma …
Test: Octet BLI, mAb on FAB2G sensor, hCD3 E/G 200-50 nM; R^2 0.98
Protocol: as §1

| Binder | Kd [nM] | Response | koff [s⁻¹] | kon [M⁻¹ s⁻¹] |
| --- | --- | --- | --- | --- |
| B1 | 233 | 0.14 | 0.115 | 495000 |
| B2 | 23.8 | 0.69 | 0.00391 | 164000 |
| B3 | 233 | 0.06 | 0.163 | 699000 |
| B4 | 9.82 | 0.89 | 0.00196 | 199000 |
